The target in series [1] is T1, Fis1 (mitochondrial fission protein 1), cytosolic domain (Homo sapiens, UniProt Q9Y3D6, T34D).
T1 construct: cytosolic domain, C-terminal HRV 3C site and His6 tag (cut off), codon optimized, E. coli BL21(DE3); first 30 residues disordered in mutant crystals
T1 sequence (Q9Y3D6 1-123 T34D): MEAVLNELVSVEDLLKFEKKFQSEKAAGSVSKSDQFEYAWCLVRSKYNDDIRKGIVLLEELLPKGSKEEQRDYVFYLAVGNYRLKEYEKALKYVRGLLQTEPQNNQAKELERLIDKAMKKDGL
Kind of series: CPM thiol fluorescence competition. The format is binding. The conditions noted are these: read-out: apparent IC50.

Series [2] concerns the molecule itself. Nature of the series: crystal structure; tag-free Fis1 protein/mutant at 8 mg/ml, sitting drop; data at 100 K, SSRL BL12-2; molecular replacement with PDB 1NZN.

The source of these data is PMC12056058 (Nature Communications, 2025).

A word on the IC50: it is the concentration needed to halve the response being measured.

With `CN(CCCN1c2ccccc2Sc2ccccc21)C(=O)CCl` [SP11, N-(3-(10H-phenothiazin-10-yl)propyl)-2-chloro-N-methylacetamide], the IC50 in series [1] was 9.4 µM.

As for `C=CC(=O)N(C)CCCN1c2ccccc2Sc2ccccc21` [SP22, N-(3-(10H-phenothiazin-10-yl)propyl)-N-methylacrylamide], the IC50 in series [1] was determined as 15.4 µM.

B1: Thr34Asp Fis1, cytosolic domain, tag-free (domain or fragment, human)
chain: MEAVLNELVSVEDLLKFEKKFQSEKAAGSVSKSDQFEYAWCLVRSKYNDDIRKGIVLLEELLPKGSKEEQRDYVFYLAVGNYRLKEYEKALKYVRGLLQTEPQNNQAKELERLIDKAMKKDGL
notes: Mitochondrial fission protein 1 (Fis1), human, cytosolic domain; also called T34D; phosphorylation mimic-mutant; source: E. coli BL21 (DE3), purified (Ni-NTA, HRV 3C cleavage, reverse Ni-NTA); not shown: His6, C-terminal, cleaved
Turning to B1, in series [2], the binding result was “binds”.

B2: Thr34Glu Fis1, cytosolic domain, tag-free (domain or fragment, human)
chain: MEAVLNELVSVEDLLKFEKKFQSEKAAGSVSKSEQFEYAWCLVRSKYNDDIRKGIVLLEELLPKGSKEEQRDYVFYLAVGNYRLKEYEKALKYVRGLLQTEPQNNQAKELERLIDKAMKKDGL
notes: Mitochondrial fission protein 1 (Fis1), human, cytosolic domain; also called phosphorylation mimic-mutant; source: E. coli BL21 (DE3), purified (Ni-NTA, HRV 3C cleavage, reverse Ni-NTA); not shown: His6, C-terminal, cleaved
Turning to B2, in series [2], the binding result was “binds”.

B3: Tyr38Glu Fis1, cytosolic domain, tag-free (domain or fragment, human)
chain: MEAVLNELVSVEDLLKFEKKFQSEKAAGSVSKSTQFEEAWCLVRSKYNDDIRKGIVLLEELLPKGSKEEQRDYVFYLAVGNYRLKEYEKALKYVRGLLQTEPQNNQAKELERLIDKAMKKDGL
notes: Mitochondrial fission protein 1 (Fis1), human, cytosolic domain; also called Y38E; phosphorylation mimic-mutant; source: E. coli BL21 (DE3), purified (Ni-NTA, HRV 3C cleavage, reverse Ni-NTA); not shown: His6, C-terminal, cleaved
As for B3, the binding result in series [2] was “binds”.
